Among the data in patent publication US20240190987A1 (TIGATX, published 2024) are Kd values, retold here.

B1: Ab0936 (antibody, V domains shown)
VH: EVQLVESGGGLVQPGGSLRLSCAASGFDFSSYSIHWVRQAPGKGLEWVAAISPYYGSTYYADSVKGRFTISADTSKNTAYLQMNSLRAEDTAVYYCARYYEWYKYDLYLGSLGFDYWGQGTLVTVSS
VL: DIQMTQSPSSLSASVGDRVTITCRASQSVSSAVAWYQQKPGKAPKLLIYSASSLYSGVPSRFSGSRSGTDFTLTISSLQPEDFATYYCQQGGYSLITFGQGTKVEIK
notes: also called LS2B R6M2
B2: Ab0944 (antibody, V domains shown)
VH: B1 VH with A50S, D106A
VL: B1 VL
notes: also called LS2B R6M10
B3: Ab0953 (antibody, V domains shown)
VH: B1 VH with A50S
VL: B1 VL with G92A
notes: also called LS2B R6M22
B4: Ab0941 (antibody, V domains shown)
VH: B1 VH with A50S, S57A
VL: B1 VL
notes: also called LS2B R6M7
B5: Ab0937 (antibody, V domains shown)
VH: B1 VH with A50S, I51A
VL: B1 VL
notes: also called LS2B R6M3
B6: Ab0958 (antibody, V domains shown)
VH: B1 VH with A50S
VL: B1 VL with T97A
notes: also called LS2B R6M27
B7: Ab0939 (antibody, V domains shown)
VH: B1 VH with A50S, P53A
VL: B1 VL
notes: also called LS2B R6M5
B8: Ab1071 (Fab, V domains shown)
VH: B1 VH with A50S, L109A
VL: B1 VL
notes: also called LS2B R5M2 Fab

Residue numbers refer to the chain shown, from its start.

The first assay addresses T1, Ab0787.
T1 construct: Fab, His-Tag, Avi-Tag; Ab0785 + HC I50M; also called LS2A R3M2; Ab787
Briefly: BLI 5-pt +indinavir.
On to B1, for which the Kd is 1 nM.

The next assay deals with T1, Ab0787. Briefly: BLI 1-pt +indinavir.
In turn, B1 returned a Kd of 5.7 nM.
B2 yielded a Kd of 100 nM.
The molecule B3 returned a Kd of 50 nM.
On the same count and under the same terms, the value for B4 was 49 nM; that for B5 was 42 nM.
B6 showed a Kd of 42 nM.
The molecule B7 returned a Kd of 40 nM.

In a further assay the target is T2, Ab0786.
T2 construct: Fab, His-Tag, Avi-Tag; Ab0785 + HC I50M+S58N; also called LS2A R3M1 Fab; biotinylated-Ab0786
The assay is described as follows: BLI +indinavir.
Turning to B8, the affinity, expressed as Kd, was 79 nM.

By Kd is commonly meant the equilibrium constant for the complex coming apart. A lower Kd goes with tighter binding.
